# Source: publication PMC6827302 (2019)
# B1: human cMyBP-C C0–C2 3SD (S275D, S284D, S304D) (domain or fragment)
# chain: MPEPGKKPVSAFSKKPRSVEVAAGSPAVFEAETERAGVKVRWQRGGSDISASNKYGLATEGTRHTLTVREVGPADQGSYAVIAGSSKVKFDLKVIEAEKAEPMLAPAPAPAEATGAPGEAPAPAAELGESAPSPKGSSSAALNGPTPGAPDDPIGLFVMRPQDGEVTVGGSITFSARVAGASLLKPPVVKWFKGKWVDLSSKVGQHLQLHDSYDRASKVYLFELHITDAQPAFTGSYRCEVSTKDKFDCSNFNLTVHEAMGTGDLDLLSAFRRTDLAGGGRRIDDSHEDTGILDFSSLLKKRDDFRTPRDSKLEAPAEEDVWEILRQAPPSEYERIAFQYGVTDLRGMLKRLKGMRRDEKKSTAFQKKLEPAYQVSKGHKIRLTVELADHDAEVKWLKNGQEIQMSGSKYIFESIGAKRTLTISQCSLADDAAYQCVVGGEKCSTELFVKEPPVLITRPLEDQLVMVGQRVEFECEVSEEGAQVKWLKDGVELTREETFKYRFKKDGQRHHLIINEAMLEDAGHYALCTSGGQALAELIVQEKKLEVYQSIADLMVGAKDQAVFKCEVSDENVRGVWLKNGKELVPDSRIKVSHIGRVHKLTIDDVTPADEADYSFVPEGFACNLSAKLHFMEVKIDFVPRQEPPKIHLDCPGRIPDTIVVVAGNKLRLDVPISGDPAPTVIWQKAITQGNKAPARPAPDAPEDTGDSDEWVFDKKLLCETEGRVRVETTKDRSIFTVEGAEKEDEGVYTVTVKNPVGEDQVNLTVKVIDVPDAPAAPKISNVGEDSCTVQWEPPAYDGGQPILGYILERKKKKSYRWMRLNFDLIQELSHEARRMIEGVVYEMRVYAVNAIGMSRPSPASQPFMPIGPPSEPTHLAVEDVSDTTVSLKWRPPERVGAGGLDGYSVEYCPEGCSEWVAALQGLTEHTSILVKDLPTGARLLFRVRAHNMAGPGAPVTTTEPVTVQEILQRPRLQLPRHLRQTIQKKVGEPVNLLIPFQGKPRPQVTWTKEGQPLAGEEVSIRNSPTDTILFIRAARRVHSGTYQVTVRIENMEDKATLVLQVVDKPSPPQDLRVTDAWGLNVALEWKPPQDVGNTELWGYTVQKADKKTMEWFTVLEHYRRTHCVVPELIIGNGYYFRVFSQNMVGFSDRAATTKEPVFIPRPGITYEPPNYKALDFSEAPSFTQPLVNRSVIAGYTAMLCCAVRGSPKPKISWFKNGLDLGEDARFRMFSKQGVLTLEIRKPCPFDGGIYVCRATNLQGEARCECRLEVRVPQ
# B2: human cMyBP-C N-terminal domains C0–C1 (domain or fragment)
# chain: MPEPGKKPVSAFSKKPRSVEVAAGSPAVFEAETERAGVKVRWQRGGSDISASNKYGLATEGTRHTLTVREVGPADQGSYAVIAGSSKVKFDLKVIEAEKAEPMLAPAPAPAEATGAPGEAPAPAAELGESAPSPKGSSSAALNGPTPGAPDDPIGLFVMRPQDGEVTVGGSITFSARVAGASLLKPPVVKWFKGKWVDLSSKVGQHLQLHDSYDRASKVYLFELHITDAQPAFTGSYRCEVSTKDKFDCSNFNLTV
# Target: unlabeled F-actin from rabbit skeletal muscle (rabbit, UniProt P68135 1-377)
row,Binder,Kd
1,B1,7 µM
2,B2,32 µM
